PMC12640004

Molecular target: JrERF113-HIS (Juglans regia)
Experiment: EMSA

| Binder | binding result |
| --- | --- |
| JrIPT1 bioProbe (wild type) (dsDNA) DNA 1: ATCATACTGATGGAGGAGGGCGGTCCCGAATTTATATATATAGTTTCTAC DNA 2: GTAGAAACTATATATATAAATTCGGGACCGCCCTCCTCCATCAGTATGAT | binds |
| JrIPT1 mbioProbe (GCC-box mutant) (dsDNA) DNA 1: ATCATACTGATGGAGTATTTCTTTCCCGAATTTATATATATAGTTTCTAC DNA 2: GTAGAAACTATATATATAAATTCGGGAAAGAAATACTCCATCAGTATGAT | no binding |
